The target in this series is high molecular weight kininogen (single-chain) (UniProt P01042 19-644). The experiment in a line: microtiter plate binding assay (streptavidin-peroxidase); Proteins coated at 10 ug/mL in 100 mM sodium carbonate pH 9.5 (4 C, 20 h); blocked with TBS + 3% BSA; biotinylated DNA 0.31-50 ug/mL, 22 C, 2 h; TBS washes; binding buffer composition and pH not stated. The conditions noted are these: protein: commercial; hairpin, blunt-ended.

A word on the Kd: it is the concentration at which binding is half-saturated.

Sequence of high molecular weight kininogen (single-chain) (P01042 19-644): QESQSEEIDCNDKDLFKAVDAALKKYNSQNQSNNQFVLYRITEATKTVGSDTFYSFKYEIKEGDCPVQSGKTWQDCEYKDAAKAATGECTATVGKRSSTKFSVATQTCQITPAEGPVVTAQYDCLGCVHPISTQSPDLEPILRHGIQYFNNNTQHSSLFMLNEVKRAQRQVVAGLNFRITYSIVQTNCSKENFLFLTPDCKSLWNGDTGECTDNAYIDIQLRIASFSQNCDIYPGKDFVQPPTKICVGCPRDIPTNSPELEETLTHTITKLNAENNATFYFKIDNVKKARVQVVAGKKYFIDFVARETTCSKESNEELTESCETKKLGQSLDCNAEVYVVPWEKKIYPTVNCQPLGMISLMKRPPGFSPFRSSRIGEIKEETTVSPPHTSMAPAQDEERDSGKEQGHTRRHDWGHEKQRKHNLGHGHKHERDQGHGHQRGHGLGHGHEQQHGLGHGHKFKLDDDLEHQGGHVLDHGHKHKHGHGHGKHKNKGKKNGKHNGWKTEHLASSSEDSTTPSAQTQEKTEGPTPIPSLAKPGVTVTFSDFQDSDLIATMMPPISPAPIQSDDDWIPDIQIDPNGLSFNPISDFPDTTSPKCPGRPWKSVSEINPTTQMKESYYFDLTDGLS

As for GGGAATGGGTATTCCCATCCC (structured_DNA) [21mer-H1 DNA], the Kd turned out to be 1.82 ± 0.23 µM.

Values taken from paper PMC3511531, “Structural Requirements for the Procoagulant Activity of Nucleic Acids”.
